Among the data in the Human Domainome abundance scans (Beltran et al. 2025) are abundance fitness values, retold here.

± gives the uncertainty stated by the source.

The labels stand for the following.
B1: Neutrophil cytosol factor 2, residues 456 to 514; numbered along this chain, P19878 (parent)
chain: LKKGSQVEALFSYEATQPEDLEFQEGDIILVLSKVNEEWLEGECKGKVGIFPKVFVEDC

This data set covers variants of B1. Briefly: abundance fitness (aPCA) (normalised: wild type 0, dead -1); higher = more abundant; growth selection in yeast, the domain comes from the species named. Particulars: Homo sapiens.
For LKKGSQVEALFSYEATQPEDLEFQEGDIILVLSIVNEEWLEGECKGKVGIFPKVFVEDC, the abundance fitness came out at 0.456 ± 0.08. The result for LKKGSQVEALFSYEATQPEDLEFQEGDIILVLSQVNEEWLEGECKGKVGIFPKVFVEDC reads -0.215 ± 0.27; that for LKKGSQVEALFSYEATQPEDLEFQEGDIILVLSRVNEEWLEGECKGKVGIFPKVFVEDC, -0.47 ± 0.12; that for LKKGSQVEALFSYEATQPEDLEFQEGDIILVLSLVNEEWLEGECKGKVGIFPKVFVEDC, -0.436 ± 0.14. The result for LKKGSQVEALFSYEATQPEDLEFQEGDIILVLSWVNEEWLEGECKGKVGIFPKVFVEDC reads -0.437 ± 0.31. The result for LKKGSQVEALFSYEATQPEDLEFQEGDIILVLSVVNEEWLEGECKGKVGIFPKVFVEDC reads 0.467 ± 0.071.

Turning to LKKGSQVEALFSYEATQPEDLEFQEGDIILVLSCVNEEWLEGECKGKVGIFPKVFVEDC, the abundance fitness is -0.242 ± 0.12. The result for LKKGSQVEALFSYEATQPEDLEFQEGDIILVLSSVNEEWLEGECKGKVGIFPKVFVEDC reads -0.37 ± 0.1; that for LKKGSQVEALFSYEATQPEDLEFQEGDIILVLSTVNEEWLEGECKGKVGIFPKVFVEDC, 0.4 ± 0.097; that for LKKGSQVEALFSYEATQPEDLEFQEGDIILVLSYVNEEWLEGECKGKVGIFPKVFVEDC, -0.589 ± 0.15.

Take LKKGSQVEALFSYEATQPEDLEFQEGDIILVLSNVNEEWLEGECKGKVGIFPKVFVEDC: the abundance fitness is -0.287 ± 0.13. Under LKKGSQVEALFSYEATQPEDLEFQEGDIILVLSMVNEEWLEGECKGKVGIFPKVFVEDC stands -0.326 ± 0.2; under LKKGSQVEALFSYEATQPEDLEFQEGDIILVLSPVNEEWLEGECKGKVGIFPKVFVEDC, -0.853 ± 0.4; under LKKGSQVEALFSYEATQPEDLEFQEGDIILVLSHVNEEWLEGECKGKVGIFPKVFVEDC, 0.059 ± 0.12.

Turning to LKKGSQVEALFSYEATQPEDLEFQEGDIILVLSEVNEEWLEGECKGKVGIFPKVFVEDC, the abundance fitness amounted to 0.466 ± 0.14. The result for LKKGSQVEALFSYEATQPEDLEFQEGDIILVLSGVNEEWLEGECKGKVGIFPKVFVEDC reads -0.822 ± 0.17; that for LKKGSQVEALFSYEATQPEDLEFQEGDIILVLSFVNEEWLEGECKGKVGIFPKVFVEDC, -0.459 ± 0.13.

In the case of LKKGSQVEALFSYEATQPEDLEFQEGDIILVLSDVNEEWLEGECKGKVGIFPKVFVEDC, the abundance fitness was -0.026 ± 0.11.

Turning to LKKGSQVEALFSYEATQPEDLEFQEGDIILVLSAVNEEWLEGECKGKVGIFPKVFVEDC, the abundance fitness is -0.359 ± 0.13. Under LKKGSQVEALFSYEATQPEDLEFQEGDIILVLSKENEEWLEGECKGKVGIFPKVFVEDC stands -1.04 ± 0.48.

In the case of LKKGSQVEALFSYEATQPEDLEFQEGDIILVLSKRNEEWLEGECKGKVGIFPKVFVEDC, the abundance fitness is -0.235 ± 0.096. Under LKKGSQVEALFSYEATQPEDLEFQEGDIILVLSKYNEEWLEGECKGKVGIFPKVFVEDC stands -0.69 ± 0.17. Under LKKGSQVEALFSYEATQPEDLEFQEGDIILVLSKQNEEWLEGECKGKVGIFPKVFVEDC stands -0.302 ± 0.32; under LKKGSQVEALFSYEATQPEDLEFQEGDIILVLSKNNEEWLEGECKGKVGIFPKVFVEDC, -0.517 ± 0.15; under LKKGSQVEALFSYEATQPEDLEFQEGDIILVLSKLNEEWLEGECKGKVGIFPKVFVEDC, -0.096 ± 0.089. Under LKKGSQVEALFSYEATQPEDLEFQEGDIILVLSKDNEEWLEGECKGKVGIFPKVFVEDC stands -0.588 ± 0.17. On to LKKGSQVEALFSYEATQPEDLEFQEGDIILVLSKCNEEWLEGECKGKVGIFPKVFVEDC, for which the abundance fitness is -0.475 ± 0.13.

On to LKKGSQVEALFSYEATQPEDLEFQEGDIILVLSKSNEEWLEGECKGKVGIFPKVFVEDC, for which the abundance fitness is -0.459 ± 0.1. With LKKGSQVEALFSYEATQPEDLEFQEGDIILVLSKANEEWLEGECKGKVGIFPKVFVEDC, the abundance fitness is -0.074 ± 0.1. Under LKKGSQVEALFSYEATQPEDLEFQEGDIILVLSKWNEEWLEGECKGKVGIFPKVFVEDC stands -0.019 ± 0.16; under LKKGSQVEALFSYEATQPEDLEFQEGDIILVLSKMNEEWLEGECKGKVGIFPKVFVEDC, -0.081 ± 0.24; under LKKGSQVEALFSYEATQPEDLEFQEGDIILVLSKGNEEWLEGECKGKVGIFPKVFVEDC, -0.613 ± 0.11. Under LKKGSQVEALFSYEATQPEDLEFQEGDIILVLSKTNEEWLEGECKGKVGIFPKVFVEDC stands -0.808 ± 0.2; under LKKGSQVEALFSYEATQPEDLEFQEGDIILVLSKKNEEWLEGECKGKVGIFPKVFVEDC, -0.045 ± 0.23; under LKKGSQVEALFSYEATQPEDLEFQEGDIILVLSKHNEEWLEGECKGKVGIFPKVFVEDC, -0.806 ± 0.23. With LKKGSQVEALFSYEATQPEDLEFQEGDIILVLSKFNEEWLEGECKGKVGIFPKVFVEDC, the abundance fitness was -0.264 ± 0.12. The result for LKKGSQVEALFSYEATQPEDLEFQEGDIILVLCKVNEEWLEGECKGKVGIFPKVFVEDC reads -0.474 ± 0.13; that for LKKGSQVEALFSYEATQPEDLEFQEGDIILVLIKVNEEWLEGECKGKVGIFPKVFVEDC, -0.34 ± 0.15; that for LKKGSQVEALFSYEATQPEDLEFQEGDIILVLRKVNEEWLEGECKGKVGIFPKVFVEDC, 0.59 ± 0.077. Under LKKGSQVEALFSYEATQPEDLEFQEGDIILVLGKVNEEWLEGECKGKVGIFPKVFVEDC stands 0.378 ± 0.069; under LKKGSQVEALFSYEATQPEDLEFQEGDIILVLEKVNEEWLEGECKGKVGIFPKVFVEDC, -0.786 ± 0.28; under LKKGSQVEALFSYEATQPEDLEFQEGDIILVLYKVNEEWLEGECKGKVGIFPKVFVEDC, -0.55 ± 0.15. Under LKKGSQVEALFSYEATQPEDLEFQEGDIILVLNKVNEEWLEGECKGKVGIFPKVFVEDC stands 0.147 ± 0.089; under LKKGSQVEALFSYEATQPEDLEFQEGDIILVLFKVNEEWLEGECKGKVGIFPKVFVEDC, -0.291 ± 0.13; under LKKGSQVEALFSYEATQPEDLEFQEGDIILVLWKVNEEWLEGECKGKVGIFPKVFVEDC, -0.366 ± 0.2.
